Values quoted from earlier work, collected in publication PMC9590617.

Legend:
NPFFR1 (Homo sapiens) = NPFFR1 (Homo sapiens) (UniProt Q9GZQ6)
NPFFR2 (Homo sapiens) = NPFFR2 (Homo sapiens) (UniProt Q9Y5X5)
UniProt Q9Y5X5, sequence (Q9Y5X5 whole entry): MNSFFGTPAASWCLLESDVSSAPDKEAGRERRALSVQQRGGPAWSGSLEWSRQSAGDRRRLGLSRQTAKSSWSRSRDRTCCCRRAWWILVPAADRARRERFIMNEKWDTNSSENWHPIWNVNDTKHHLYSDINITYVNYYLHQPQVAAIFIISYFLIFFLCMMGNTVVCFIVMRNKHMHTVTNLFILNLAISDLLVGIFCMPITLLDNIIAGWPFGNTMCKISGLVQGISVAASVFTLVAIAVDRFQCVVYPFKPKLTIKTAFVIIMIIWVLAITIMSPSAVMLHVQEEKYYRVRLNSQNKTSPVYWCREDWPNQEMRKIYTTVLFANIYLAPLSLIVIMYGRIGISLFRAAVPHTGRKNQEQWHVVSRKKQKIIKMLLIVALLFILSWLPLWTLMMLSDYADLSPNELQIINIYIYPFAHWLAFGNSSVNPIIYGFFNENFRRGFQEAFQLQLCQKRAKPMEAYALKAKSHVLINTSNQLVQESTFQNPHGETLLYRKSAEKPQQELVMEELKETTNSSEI

UniProt Q9GZQ6, sequence (Q9GZQ6 whole entry): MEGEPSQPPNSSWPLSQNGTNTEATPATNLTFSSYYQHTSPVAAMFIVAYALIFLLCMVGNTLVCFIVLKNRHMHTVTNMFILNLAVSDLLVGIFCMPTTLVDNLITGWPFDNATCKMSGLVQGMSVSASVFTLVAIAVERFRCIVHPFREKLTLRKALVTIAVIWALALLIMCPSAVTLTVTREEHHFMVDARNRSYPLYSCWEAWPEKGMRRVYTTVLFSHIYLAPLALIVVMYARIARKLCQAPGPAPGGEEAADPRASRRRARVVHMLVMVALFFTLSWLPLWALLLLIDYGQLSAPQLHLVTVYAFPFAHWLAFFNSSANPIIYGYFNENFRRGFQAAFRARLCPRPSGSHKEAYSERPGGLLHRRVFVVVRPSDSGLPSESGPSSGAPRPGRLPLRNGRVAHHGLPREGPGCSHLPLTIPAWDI

Kd (NPFFR1 (Homo sapiens)): 1.13 nM
Kd (NPFFR2 (Homo sapiens)): 0.37 nM
Substance: Neuropeptide FF (from UniProt O15130)
